# Data reported in paper PMC7782693, “Structural insights into photoactivation of plant Cryptochrome-2” (Communications Biology, 2021).
# B1: Arabidopsis CRY2 photolyase homologous region (PHR) domain (domain or fragment, Arabidopsis thaliana, UniProt Q96524 1-498, looked up)
# chain: MKMDKKTIVWFRRDLRIEDNPALAAAAHEGSVFPVFIWCPEEEGQFYPGRASRWWMKQSLAHLSQSLKALGSDLTLIKTHNTISAILDCIRVTGATKVVFNHLYDPVSLVRDHTVKEKLVERGISVQSYNGDLLYEPWEIYCEKGKPFTSFNSYWKKCLDMSIESVMLPPPWRLMPITAAAEAIWACSIEELGLENEAEKPSNALLTRAWSPGWSNADKLLNEFIEKQLIDYAKNSKKVVGNSTSLLSPYLHFGEISVRHVFQCARMKQIIWARDKNSEGEESADLFLRGIGLREYSRYICFNFPFTHEQSLLSHLRFFPWDADVDKFKAWRQGRTGYPLVDAGMRELWATGWMHNRIRVIVSSFAVKFLLLPWKWGMKYFWDTLLDADLECDILGWQYISGSIPDGHELDRLDNPALQGAKYDPEGEYIRQWLPELARLPTEWIHHPWDAPLTVLKASGVELGTNYAKPIVDIDTARELLAKAISRTREAQIMIGAA
# notes: Cryptochrome-2 (CRY2), Arabidopsis thaliana, PHR domain, residues 1-498, wild type; Expressed as a GST fusion from the pFastbac-GST vector; GST removed by TEV protease on the column; The crystal holds four copies (monomers A-D); in solution mostly monomer; also called AtCRY2-PHR; CRY2-PHR
# Experiments:
# [1] = molecular target: the molecule itself; test: SEC; Superdex-200 gel filtration, 20 mM Tris pH 8.0, 200 mM NaCl, 2 mM DTT, 4% glycerol; molecular weights estimated against standards
# [2] = molecular target: the molecule itself; test: crystal structure; hanging-drop vapor diffusion at 25 °C under continuous full-spectrum white light (40 μmol m^2 s^-1); 1.5 M sodium nitrate, 0.1 M BIS-TRIS propane pH 7.0; tetramer of four monomers A-D
protein,measurement,setting,value
B1,stoichiometry N,[1],2
same,stoichiometry N,[2],4
